The Human Domainome abundance scans (Beltran et al. 2025)
± gives the uncertainty stated by the source.

B1: Gamma-crystallin S, residues 96 to 176; numbered along this chain, P22914 (parent)
chain: IQIFEKGDFSGQMYETTEDCPSIMEQFHMREIHSCKVLEGVWIFYELPNYRGRQYLLDKKEYRKPIDWGAASPAVQSFRRI

Variants of: B1
Assay: abundance fitness (aPCA) (normalised: wild type 0, dead -1); higher = more abundant; growth selection in yeast, the domain comes from the species named
Details: Homo sapiens

Row | Variant | abundance fitness
1 | IQIFEKGDFSGQMYETTEDCPSIMEQFHMREIHSCKVLEGVWIFYELPNYRGRQYLLDKKEYRKPIDWGAASPAVQSFTRI [R79T] | 0.021 ± 0.21
2 | IQIFEKGDFSGQMYETTEDCPSIMEQFMMREIHSCKVLEGVWIFYELPNYRGRQYLLDKKEYRKPIDWGAASPAVQSFRRI [H28M] | -0.05 ± 0.089
3 | IQIFDKGDFSGQMYETTEDCPSIMEQFHMREIHSCKVLEGVWIFYELPNYRGRQYLLDKKEYRKPIDWGAASPAVQSFRRI [E5D] | -0.05 ± 0.062
4 | IWIFEKGDFSGQMYETTEDCPSIMEQFHMREIHSCKVLEGVWIFYELPNYRGRQYLLDKKEYRKPIDWGAASPAVQSFRRI [Q2W] | 0.003 ± 0.068
5 | IMIFEKGDFSGQMYETTEDCPSIMEQFHMREIHSCKVLEGVWIFYELPNYRGRQYLLDKKEYRKPIDWGAASPAVQSFRRI [Q2M] | -0.077 ± 0.1
6 | IQIFEKQDFSGQMYETTEDCPSIMEQFHMREIHSCKVLEGVWIFYELPNYRGRQYLLDKKEYRKPIDWGAASPAVQSFRRI [G7Q] | -0.099 ± 0.064
7 | IQIFEKHDFSGQMYETTEDCPSIMEQFHMREIHSCKVLEGVWIFYELPNYRGRQYLLDKKEYRKPIDWGAASPAVQSFRRI [G7H] | 0.013 ± 0.076
8 | IQIFEKGDFSGQMYETTEDCPSIMEQFHMREIHSCKVLEGVCIFYELPNYRGRQYLLDKKEYRKPIDWGAASPAVQSFRRI [W42C] | -0.156 ± 0.073
9 | IQIFEKGDFSGQMYETWEDCPSIMEQFHMREIHSCKVLEGVWIFYELPNYRGRQYLLDKKEYRKPIDWGAASPAVQSFRRI [T17W] | 0.021 ± 0.079
10 | IQIFEKGDFSGQMYETIEDCPSIMEQFHMREIHSCKVLEGVWIFYELPNYRGRQYLLDKKEYRKPIDWGAASPAVQSFRRI [T17I] | 0.037 ± 0.12
11 | IQIFEKGDFSGQMYETLEDCPSIMEQFHMREIHSCKVLEGVWIFYELPNYRGRQYLLDKKEYRKPIDWGAASPAVQSFRRI [T17L] | 0.022 ± 0.056
12 | IQIFEKGDFSGQMYETTEFCPSIMEQFHMREIHSCKVLEGVWIFYELPNYRGRQYLLDKKEYRKPIDWGAASPAVQSFRRI [D19F] | -0.116 ± 0.087
13 | IQIFEKGDFSGQMYETTEDCPSNMEQFHMREIHSCKVLEGVWIFYELPNYRGRQYLLDKKEYRKPIDWGAASPAVQSFRRI [I23N] | -0.041 ± 0.08
14 | IQIFEKGDFSGQMYETTEDCPSCMEQFHMREIHSCKVLEGVWIFYELPNYRGRQYLLDKKEYRKPIDWGAASPAVQSFRRI [I23C] | -0.031 ± 0.11
15 | IQIFEKGDFSGQMYETTEDCPSIMEQFHMREIHSCKVLEGVWIFYELPNRRGRQYLLDKKEYRKPIDWGAASPAVQSFRRI [Y50R] | -0.685 ± 0.033
16 | IQIFEKGDFSGQMYETTEDCPSIMEQFHMREIHSCKVLEGVWIFYELPNVRGRQYLLDKKEYRKPIDWGAASPAVQSFRRI [Y50V] | -1.02 ± 0.056
17 | IQIFEKGDFSGQMYETTEDCPSIMEQFHMREIHSCKVLEGVWIFYELPNYRGRQYPLDKKEYRKPIDWGAASPAVQSFRRI [L56P] | 0.166 ± 0.36

Row | Variant | abundance fitness
18 | IQIFEKGDFSGQMYETTEDCPSIMEQFHMREIHSCKVLEGVWIFYELPDYRGRQYLLDKKEYRKPIDWGAASPAVQSFRRI [N49D] | 0.004 ± 0.047
19 | IQIFEKGDFSGQMYETTEDCPSIMEQFHMREIHSCKVLEGVWIFYELPTYRGRQYLLDKKEYRKPIDWGAASPAVQSFRRI [N49T] | -0.167 ± 0.047
20 | IQIFEKGDFSGQMYETTEDCPSIMEQFHMREIHSCKVLEGVWIFYELPNYMGRQYLLDKKEYRKPIDWGAASPAVQSFRRI [R51M] | 0.049 ± 0.077
21 | IQIFEKGDFSGQMYETTEDCPSIMEQFHMREIHSCKVLEGVWIFYELPNYVGRQYLLDKKEYRKPIDWGAASPAVQSFRRI [R51V] | -0.026 ± 0.048
22 | IQIFEKGDFSGQMYETTEDCPSIMEQFHMREIHSCKVLEGVWIFYELPNYRGRQYLLEKKEYRKPIDWGAASPAVQSFRRI [D58E] | 0.085 ± 0.3
23 | IQIFEKGDFSGQMYETTEDCPSIMEQFHMREIHSCKVLEGVWIFYELPNYRGRQYLLFKKEYRKPIDWGAASPAVQSFRRI [D58F] | -0.099 ± 0.28
24 | IQIFEKGDFSGQMYETTEDCPSIMEQFHMLEIHSCKVLEGVWIFYELPNYRGRQYLLDKKEYRKPIDWGAASPAVQSFRRI [R30L] | -0.031 ± 0.048
25 | IQIFEKGDFSGQMYETTEDCPSIMEQFHMREIHSYKVLEGVWIFYELPNYRGRQYLLDKKEYRKPIDWGAASPAVQSFRRI [C35Y] | -0.217 ± 0.11
26 | IQIFEKGDFSGQMYETTEDCPSIMEQFHMREIHSCKVLEGVWIFYELPNYRGRQYLLDKKEYRKPIDWGAASRAVQSFRRI [P73R] | -0.006 ± 0.11
27 | IQIFEKGDFSGQMYETTEDCPSIMEQFHMREIHSCKVLEGVWIFYELPNYRGRQYLLDKKEYRKPIDWGAASEAVQSFRRI [P73E] | -0.215 ± 0.24
28 | IQIFEKGDFSGQMYETTEDCPSIMEQFHMREIHSCKVLEGSWIFYELPNYRGRQYLLDKKEYRKPIDWGAASPAVQSFRRI [V41S] | -0.026 ± 0.069
29 | IQIFEKGDFSGQMYETTEDCPSIMEQFHMREIHSCKVLEGVWIFYELPNYRGRQYLLDKKEYFKPIDWGAASPAVQSFRRI [R63F] | -0.025 ± 0.31
30 | IQIFEKGDFSGQMYETTEDIPSIMEQFHMREIHSCKVLEGVWIFYELPNYRGRQYLLDKKEYRKPIDWGAASPAVQSFRRI [C20I] | 0.023 ± 0.15
31 | IQIFEKGDFSGQMYETTEDFPSIMEQFHMREIHSCKVLEGVWIFYELPNYRGRQYLLDKKEYRKPIDWGAASPAVQSFRRI [C20F] | -0.222 ± 0.077
32 | IQIFEKGDFSGQMYETTEDCPSIMEQFHMREIHSCKVLEGVWIFYELHNYRGRQYLLDKKEYRKPIDWGAASPAVQSFRRI [P48H] | -0.236 ± 0.14
33 | IQIFEKGDFSGQMYETTEDCPSIMEQFHMREIHSCKVLEGVWIFYELYNYRGRQYLLDKKEYRKPIDWGAASPAVQSFRRI [P48Y] | -0.23 ± 0.12
34 | IQIFEKGDFSGQMYETTEDCPSIMEQFHMREIHSCKVLEGVWIFYELPNYRGRQYLLDKKESRKPIDWGAASPAVQSFRRI [Y62S] | -0.129 ± 0.11
